From PMC9288512, “Development and characterization of a camelid derived antibody targeting a linear epitope in the hinge domain of human PCSK9 protein” (Scientific Reports, 2022)
Numbering of substitutions follows the chain as printed.

B1: VHH-B11 (monovalent camelid nanobody against hPCSK9) (VHH)
VHH: QVQLQESGGGSVQAGGSLRLSCTVSGYTYSSNCMGWFRQAPGKEHEGVASIYIGGGSTYYADSVKGRFTISQDNAKNTVYLQMNSLKPEDTAMYYCAVGCQGLVDFGYWDQGTQVTVSS
notes: VHH-B11, llama nanobody; Also expressed in E. coli and HEK293F; also called VHH-B11 Ab; wild type VHH-B11
B2: VHH-Z1 (VHH-B11 humanized mutant) (VHH)
VHH: EVQLLESGGGLVQPGGSLRLSCTVSGYTYSSNCMGWFRQAPGKEHEGVSSIYIGGGSTYYADSVKGRFTISRDNSKNTLYLQMNSLRAEDTAVYYCAVGCQGLVDFGYWDQGTQVTVSS
notes: as the chain of m2, mutated at several of the 17 hotspots; has 80Pro in FR3; source: P. pastoris X33, secreted, purified
B3: VHH-Z5 (VHH-B11 humanized mutant) (VHH)
VHH: B2 VHH with T23A, V24A, R72Q, L79V
notes: as the chain of m2, mutated at several of the 17 hotspots; has 87Val in FR3; source: P. pastoris X33, secreted, purified
B4: humanized VHH-B11 (Hu-B11), mutated at all 17 hotspots (VHH)
VHH: B2 VHH with T23A, V24A, F37V, E44G, H45L, G47W
notes: as the chain of m2 with 17 humanising mutations in FR1-3; source: P. pastoris X33, secreted, purified
B5: VHH-Z3 (VHH-B11 humanized mutant) (VHH)
VHH: B2 VHH with T23A, V24A, S49A, R72Q, S75A
notes: as the chain of m2, mutated at several of the 17 hotspots; has 54Ala in FR2 and 83Ala in FR3; source: P. pastoris X33, secreted, purified

Legend:
[1] = biological target: T1, recombinant human proprotein convertase subtilisin/kexin 9 (hPCSK9), his-tagged (Homo sapiens, UniProt Q8NBP7); test: SPR; hPCSK9 (10 μg/mL in 10 mM sodium acetate pH 4.0) on flow cell 2 of a CM5 chip at 790 RU, flow cell 1 blank; VHH-based proteins injected in two-fold dilutions (five or three points); 25 °C, Biacore T200; binding 120 s, dissociation 300 s or 350 s; regeneration glycine pH 2.3; details: both partners purified
T1 construct: human PCSK9, recombinant, his-tagged (Sinobiological); No catalogue number is printed; also called human PCSK9; source: bought: Sinobiological, China
T1 sequence (Q8NBP7 153-692): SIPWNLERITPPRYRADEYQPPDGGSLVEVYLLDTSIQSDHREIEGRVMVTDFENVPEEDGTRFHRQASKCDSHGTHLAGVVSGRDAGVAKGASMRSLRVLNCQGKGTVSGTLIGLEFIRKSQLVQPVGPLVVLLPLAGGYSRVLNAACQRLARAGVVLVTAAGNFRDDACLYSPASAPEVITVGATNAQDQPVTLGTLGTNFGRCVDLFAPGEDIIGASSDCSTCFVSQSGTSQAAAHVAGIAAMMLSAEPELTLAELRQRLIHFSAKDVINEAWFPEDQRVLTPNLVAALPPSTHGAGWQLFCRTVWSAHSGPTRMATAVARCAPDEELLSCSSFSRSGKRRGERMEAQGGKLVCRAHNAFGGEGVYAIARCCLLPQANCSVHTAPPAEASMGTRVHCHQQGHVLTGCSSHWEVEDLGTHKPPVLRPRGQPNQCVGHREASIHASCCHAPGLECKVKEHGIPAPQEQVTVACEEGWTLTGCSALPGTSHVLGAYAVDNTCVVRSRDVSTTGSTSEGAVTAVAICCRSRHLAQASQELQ

[2] = biological target: T1, recombinant human proprotein convertase …; test: as above; details: both partners purified; remark: listed apart in the source

Row | Binder | binding result [2] | further results
1 | B1 |  | Kd [1]: ~4.4 nM
2 | B2 | binds | 
3 | B3 | binds | 
4 | B4 |  | Kd [2]: 39.7 nM
5 | B5 | binds | 
